{
  "source": "paper PMC2602864",
  "binders": {"B1": {"name": "EcoR124I HsdR subunit, wild type (enzyme)", "chain": "MTHQTHTIAESNNFIVLDKYIKAEPTGDSYQSESDLERELIQDLRNQGYEFISVKSQSAMLANVREQLQNLNGVVFNDSEWRRFTEQYLDNPSDGILDKTRKIHIDYICDFIFDDERLENIYLIDKKNLMRNKVQIIQQFEQAGSHANRYDVTILVNGLPLVQIELKKRGVAIREAFNQIHRYSKESFNSENSLFKYLQLFVISNGTDTRYFANTTKRDKNSFDFTMNWAKSDNTLIKDLKDFTATCFQKHTLLNVLVNYSVFDSSQTLLVMRPYQIAATERILWKIKSSFTAKNWSKPESGGYIWHTTGSGKTLTSFKAARLATELDFIDKVFFVVDRKDLDYQTMKEYQRFSPDSVNGSENTAGLKRNLDKDDNKIIVTTIQKLNNLMKAESDLPVYNQQVVFIFDECHRSQFGEAQKNLKKKFKRYYQFGFTGTPIFPENALGSETTASVFGRELHSYVITDAIRDEKVLKFKVDYNDVRPQFKSLETETDEKKLSAAENQQAFLHPMRIQEITQYILNNFRQKTHRTFPGSKGFNAMLAVSSVDAAKAYYATFKRLQEEAANKSATYKPLRIATIFSFAANEEQNAIGEISDETFDTSAMDSSAKEFLDAAIREYNSHFKTNFSTDSNGFQNYYRDLAQRVKNQDIDLLIVVGMFLTGFDAPTLNTLFVDKNLRYHGLMQAFSRTNRIYDATKTFGNIVTFRDLERSTIDAITLFGDKNTKNVVLEKSYTEYMEGFTDAATGEAKRGFMTVVSELEQRFPDPTSIESEKEKKDFVKLFGEYLRAENILQNYDEFATLKALQQIDLSDPVAVEKFKAEHYVDDEKFAELQTIRLPADRKIQDYRSAYNDIRDWQRREKEAEKKEKSTTDWDDVVFEVDLLKSQEINLDYILGLIFEHNRQNKGKGEMIEEVKRLIRSSLGNRAKEGLVVDFIQQTNLDDLPDKASIIDAFFTFAQREQQREAEALIKEENLNEDAAKRYIRTSLKREYATENGTELNETLPKLSPLNPQYKTKKQAVFQKIVSFIEKFKGVGGKI"}},
  "molecular_target": "EcoR124I core methyltransferase (HsdM2HsdS1) (not stated (hsd genes of the IncFIV plasmid R124, carried in E. coli)) (UniProt P10484)",
  "sequence (P10484 whole entry, chain 1 of 2)": "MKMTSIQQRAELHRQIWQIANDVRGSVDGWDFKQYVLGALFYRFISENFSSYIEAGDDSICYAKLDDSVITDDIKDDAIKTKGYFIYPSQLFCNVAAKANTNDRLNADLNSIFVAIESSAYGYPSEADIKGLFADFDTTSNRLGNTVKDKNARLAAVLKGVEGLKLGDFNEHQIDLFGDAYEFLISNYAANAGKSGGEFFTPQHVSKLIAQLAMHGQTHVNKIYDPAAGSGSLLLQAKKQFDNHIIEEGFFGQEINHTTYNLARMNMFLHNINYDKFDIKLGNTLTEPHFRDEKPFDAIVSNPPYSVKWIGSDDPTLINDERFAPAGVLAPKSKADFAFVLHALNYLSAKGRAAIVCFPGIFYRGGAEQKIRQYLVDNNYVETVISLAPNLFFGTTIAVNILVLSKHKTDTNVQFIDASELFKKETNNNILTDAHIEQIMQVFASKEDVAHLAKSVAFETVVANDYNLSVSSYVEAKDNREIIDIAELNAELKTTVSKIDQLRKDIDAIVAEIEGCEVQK",
  "sequence (P10485 whole entry, chain 2 of 2, further chain)": "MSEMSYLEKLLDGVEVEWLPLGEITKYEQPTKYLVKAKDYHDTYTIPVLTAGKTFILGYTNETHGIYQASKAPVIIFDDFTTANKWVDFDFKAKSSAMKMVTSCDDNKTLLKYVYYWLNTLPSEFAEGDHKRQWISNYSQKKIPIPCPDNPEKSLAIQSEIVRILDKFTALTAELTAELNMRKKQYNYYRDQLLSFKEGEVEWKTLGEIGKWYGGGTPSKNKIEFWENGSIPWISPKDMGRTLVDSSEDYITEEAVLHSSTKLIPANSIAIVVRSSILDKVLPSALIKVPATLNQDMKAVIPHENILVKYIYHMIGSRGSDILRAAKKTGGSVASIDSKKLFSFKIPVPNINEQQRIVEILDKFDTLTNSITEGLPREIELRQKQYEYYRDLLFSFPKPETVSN",
  "data": [
    {"binder": "B1", "values": [
      {"measurement": "mean lifetime of a DNA translocation event, R1 complex (one HsdR on the MTase), magnetic tweezers", "value": 0.95, "unit": "s"}
    ]}
  ]
}
